According to the Human Domainome abundance scans (Beltran et al. 2025):
± gives the uncertainty stated by the source.

B1: Friend leukemia integration 1 transcription factor, residues 116 to 197; numbered along this chain, Q01543 (parent)
chain: NMTTNERRVIVPADPTLWTQEHVRQWLEWAIKEYSLMEIDTSFFQNMDGKELCKMNKEDFLRATTLYNTEVLLSHLSYLRES

Variants of: B1
Test: abundance fitness (aPCA) (normalised: wild type 0, dead -1); higher = more abundant; growth selection in yeast, the domain comes from the species named
Conditions: Homo sapiens

Row | Variant | abundance fitness
1 | D59H | -0.177 ± 0.23
2 | D59I | -0.607 ± 0.31
3 | D59K | -0.052 ± 0.13
4 | D59M | -0.17 ± 0.076
5 | D59P | -0.882 ± 0.14
6 | D59Q | -0.087 ± 0.068
7 | D59R | -0.327 ± 0.066
8 | D59S | -0.126 ± 0.085
9 | D59T | -0.189 ± 0.086
10 | D59V | -0.211 ± 0.071
11 | D59W | -0.106 ± 0.067
12 | D59Y | -0.045 ± 0.21
13 | F60A | -0.75 ± 0.17
14 | F60C | -0.545 ± 0.21
15 | F60G | -1.1 ± 0.28
16 | F60K | -0.801 ± 0.22
17 | F60L | -0.116 ± 0.06
18 | F60M | -0.277 ± 0.12
19 | F60P | -0.921 ± 0.11
20 | F60Q | -0.938 ± 0.35
21 | F60R | -1 ± 0.17

Row | Variant | abundance fitness
22 | F60S | -0.881 ± 0.43
23 | F60T | -0.918 ± 0.26
24 | F60V | -0.433 ± 0.089
25 | F60W | -0.114 ± 0.08
26 | F60Y | 0.152 ± 0.16
27 | L61A | -0.13 ± 0.071
28 | L61C | -0.396 ± 0.15
29 | L61D | -0.449 ± 0.22
30 | L61E | -0.16 ± 0.093
31 | L61F | -0.307 ± 0.13
32 | L61G | -0.236 ± 0.069
33 | L61H | -0.36 ± 0.38
34 | L61I | -0.268 ± 0.12
35 | L61K | -0.335 ± 0.17
36 | L61M | -0.123 ± 0.15
37 | L61N | -0.371 ± 0.12
38 | L61P | -1.07 ± 0.34
39 | L61Q | 0.009 ± 0.1
40 | L61S | -0.105 ± 0.07
41 | L61T | -0.025 ± 0.13
42 | L61V | -0.13 ± 0.05

Row | Variant | abundance fitness
43 | L61W | -0.04 ± 0.081
44 | R62A | -0.159 ± 0.097
45 | R62C | -0.23 ± 0.26
46 | R62D | -0.4 ± 0.21
47 | R62E | -0.01 ± 0.082
48 | R62F | -0.327 ± 0.2
49 | R62G | -0.016 ± 0.079
50 | R62H | -0.073 ± 0.18
51 | R62I | -0.728 ± 0.43
52 | R62K | 0.087 ± 0.15
53 | R62L | 0.007 ± 0.055
54 | R62N | -0.021 ± 0.16
55 | R62P | -0.213 ± 0.09
56 | R62Q | 0.071 ± 0.1
57 | R62S | 0.017 ± 0.059
58 | R62T | -0.117 ± 0.11
59 | R62V | 0.066 ± 0.072
60 | R62W | -0.325 ± 0.12
61 | A63D | 0.012 ± 0.32
62 | A63E | -0.213 ± 0.087
63 | A63F | -0.123 ± 0.16

Row | Variant | abundance fitness
64 | A63G | 0.018 ± 0.052
65 | A63H | -0.161 ± 0.12
66 | A63K | -0.089 ± 0.1
67 | A63L | 0.022 ± 0.055
68 | A63M | 0.024 ± 0.079
69 | A63N | 0.36 ± 0.23
70 | A63P | -0.954 ± 0.15
71 | A63R | -0.041 ± 0.048
72 | A63T | -0.106 ± 0.083
73 | A63V | 0.003 ± 0.062
74 | A63W | 0.002 ± 0.077
75 | A63Y | 0.085 ± 0.19
76 | T64A | -0.404 ± 0.12
77 | T64C | -0.505 ± 0.27
78 | T64E | -0.792 ± 0.34
79 | T64G | -0.126 ± 0.14
80 | T64I | -0.793 ± 0.46
81 | T64K | -0.796 ± 0.27
82 | T64L | -0.262 ± 0.11
83 | T64M | -0.02 ± 0.15
84 | T64N | -0.531 ± 0.28
